The target in this assay is PANX2EM (residues 1-372 of human pannexin 2 with a C-terminal thermostabilized BRIL) (UniProt Q96RD6). Briefly: cryo-EM structure; purified PANX2EM (~6 mg/ml) in 20 mM Tris pH 8.0, 150 mM NaCl, 40 uM GDN, with 1 mM Fluorinated Fos-Choline 8; single-particle analysis, C7 symmetry, 3.92 Å; C1 reconstruction aligned with it.

On to “PANX2EM (residues 1-372 of human pannexin 2 with a C-terminal thermostabilized BRIL) (from UniProt Q96RD6-3 1-372)”, for which the stoichiometry N – broadly, the number of molecules, sites or subunits per partner or assembly – stood at 7.

(Values after publication PMC10043284.)
